Assay results taken from the supplement of paper PMC10126150.
± gives the standard deviation of the averaged measurements.

Test system: ATP
Assay: switch fluorescence ratio, 500 uM ATP over buffer (Cy3 cluster intensity, sum of 5 cycles each) (fold (ratio)); higher = stronger signal-on switching upon ATP binding; sequences stand for … in TCGTCGGCAGCGTCAGATGTGTATAAGAGACAGTTTTTTTTTTTTTTTTTTTTTTTTT…TC
Conditions: aptamer strand: ATP DNA aptamer (quencher-CACCTGGGGGAGTATTGCGGAGGAAGG + anchor), 100 nM annealed; ATP concentration: 500 uM
Summary of the method: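 Clusters with intensities outside 100-1000 RFU were excluded. The remaining Cy3-labelled switching-strand clusters on a modified Illumina MiSeq flow-cell had been annealed to 100 nM quencher-labelled ATP aptamer and imaged in selection buffer, then after 15 min with 500 uM ATP at 22 °C, for five cycles separated by NaOH stripping and re-annealing. The fluorescence ratio, averaged per switch-domain sequence, is each cluster's summed target-cycle Cy3 intensity over its summed buffer-cycle Cy3 intensity.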
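Note: ATP exposure 15 min at 22 °C before imaging.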

Sequence	switch fluorescence ratio
AGGCGTGAGG	1.01 ± 0.049
AGGCTAAAG	0.974 ± 0.01
AGGCTATCCC	0.992 ± 0.033
AGGCTCACAA	1.07 ± 0.03
AGGCTCCGAG	1.03 ± 0.011
AGGCTCCTCG	1.039 ± 4.4e-05
AGGCTCTTTG	1.01 ± 0.04
AGGCTGAGCG	1.01 ± 0.022
AGGCTGTTCT	0.991 ± 0.059
AGGCTTGCGC	1.01 ± 0.037
AGGCTTTCCT	1.05 ± 0.04
AGGCTTTTAT	1.005 ± 0.0078
AGGGAAAAAT	1.06 ± 0.082
AGGGAAACTA	0.999 ± 0.013
AGGGAAAGGG	1.02 ± 0.02
AGGGAAATAA	0.987 ± 0.026
AGGGAACCCT	1.13 ± 0.03
AGGGAAGGAA	1.01 ± 0.037
AGGGAAGGAC	1.03 ± 0.029
AGGGAAGTCG	0.9751 ± 0.0093
AGGGAAGTTA	1.01 ± 0.014
AGGGACAAGG	1.014 ± 0.0095
AGGGACGTTC	0.967 ± 0.024
AGGGACTAGA	1 ± 0.025
AGGGACTGAC	1.24 ± 0.075

Sequence	switch fluorescence ratio
AGGGACTGTG	1.01 ± 0.073
AGGGACTTTA	1.0332 ± 0.00011
AGGGAGAAAC	0.984 ± 0.028
AGGGAGAAGA	1.005 ± 0.0077
AGGGAGAGAG	0.997 ± 0.022
AGGGAGAGCC	0.9957 ± 0.0041
AGGGAGATAA	1.14 ± 0.17
AGGGAGCTGG	0.998 ± 0.013
AGGGAGGGGG	1.01 ± 0.094
AGGGAGGGTG	1.02 ± 0.066
AGGGAGGTTG	1.01 ± 0.013
AGGGAGTAGG	1.12 ± 0.029
AGGGATAAAT	1.01 ± 0.055
AGGGATAGAT	0.99 ± 0.026
AGGGATGGTT	0.982 ± 0.013
AGGGATGTCT	1.02 ± 0.043
AGGGATGTTA	0.991 ± 0.014
AGGGATGTTG	0.995 ± 0.013
AGGGATTACG	1.01 ± 0.038
AGGGATTAGG	0.99 ± 0.034
AGGGATTAGT	0.991 ± 0.022
AGGGATTGCG	0.9971 ± 0.0093
AGGGATTGGT	0.952 ± 0.019
AGGGCAATAT	3.84 ± 0.48
AGGGCACGGT	0.983 ± 0.036

Sequence	switch fluorescence ratio
AGGGCAGTTG	0.97 ± 0.024
AGGGCATTCA	1.02 ± 0.046
AGGGCCTCTT	0.986 ± 0.028
AGGGCGCTAT	1.05 ± 0.042
AGGGCGGCTT	1 ± 0.032
AGGGCGTACA	0.992 ± 0.01
AGGGCTAAGG	0.9995 ± 0.0034
AGGGCTAATA	1.009 ± 0.0081
AGGGCTGTGT	0.999 ± 0.046
AGGGGACGGC	1.04 ± 0.0085
AGGGGAGAGA	1.04 ± 0.014
AGGGGAGTAG	0.99 ± 0.022
AGGGGATGCT	1.01 ± 0.016
AGGGGATTTG	0.999 ± 0.03
AGGGGCAACT	1 ± 0.048
AGGGGCGCCG	1 ± 0.06
AGGGGCGGTC	1.03 ± 0.014
AGGGGCGTGG	1.01 ± 0.046
AGGGGCTATA	0.9703 ± 0.0061
AGGGGCTCCG	1.02 ± 0.036
AGGGGGCATG	0.986 ± 0.023
AGGGGGCGAG	0.988 ± 0.018
AGGGGGCGCA	0.991 ± 0.051
AGGGGGCGCT	1.01 ± 0.043
AGGGGGCGTC	1.022 ± 0.0093

Sequence	switch fluorescence ratio
AGGGGGCTTT	0.985 ± 0.021
AGGGGGGAC	0.9875 ± 0.0048
AGGGGGGAGA	0.994 ± 0.026
AGGGGGGCCT	0.989 ± 0.087
AGGGGGGCGC	0.993 ± 0.033
AGGGGGGCTA	0.991 ± 0.038
AGGGGGGGAG	1.01 ± 0.053
AGGGGGGGGC	1.04 ± 0.13
AGGGGGTGCT	0.997 ± 0.028
AGGGGGTTCT	1.017 ± 0.0056
AGGGGGTTT	1.02 ± 0.024
AGGGGTAACT	0.996 ± 0.031
AGGGGTACAT	1.01 ± 0.033
AGGGGTACGC	0.95 ± 0.091
AGGGGTATTC	1.01 ± 0.049
AGGGGTGAGT	1.02 ± 0.04
AGGGGTGCCT	0.993 ± 0.013
AGGGGTGTGT	1.01 ± 0.019
AGGGGTGTT	1.02 ± 0.016
AGGGTAATTG	0.998 ± 0.036
AGGGTAGTAG	1.015 ± 0.0063
AGGGTATATC	1.05 ± 0.03
AGGGTCATTC	0.975 ± 0.017
AGGGTCCGAG	1.001 ± 0.0045
AGGGTCCTAC	1.02 ± 0.047

Sequence	switch fluorescence ratio
AGGGTCGCTG	1.016 ± 0.0011
AGGGTCGGAC	1.01 ± 0.012
AGGGTCTGAG	1.01 ± 0.026
AGGGTCTTTA	0.999 ± 0.012
AGGGTGAGCG	0.997 ± 0.022
AGGGTGAGGC	0.992 ± 0.06
AGGGTGAGGG	0.984 ± 0.042
AGGGTGGTAG	0.978 ± 0.035
AGGGTGTGAT	1.04 ± 0.026
AGGGTGTTAT	0.993 ± 0.022
AGGGTGTTTG	1.01 ± 0.019
AGGGTTAAAT	1 ± 0.012
AGGGTTAAGT	1.002 ± 0.0061
AGGGTTACGG	1.02 ± 0.025
AGGGTTATGT	0.971 ± 0.03
AGGGTTATTA	0.9786 ± 0.0025
AGGGTTATTT	0.998 ± 0.03
AGGGTTGGGC	1.01 ± 0.021
AGGGTTGTAT	1.001 ± 0.0037
AGGGTTGTTG	0.999 ± 0.015
AGGGTTTCTC	0.989 ± 0.0011
AGGGTTTGAG	1.11 ± 0.2
AGGGTTTGCT	0.96929 ± 0.00044
AGGGTTTTAG	0.994 ± 0.019
AGGTAAAAAG	1.02 ± 0.017

Sequence	switch fluorescence ratio
AGGTAAGGCT	0.976 ± 0.025
AGGTAATACA	1.08 ± 0.029
AGGTAATGCA	1.012 ± 0.0037
AGGTACGACG	0.99 ± 0.013
AGGTACGGAG	1.01 ± 0.019
AGGTACGTTT	1.03 ± 0.02
AGGTACTGTA	1.01 ± 0.011
AGGTAGAATG	0.998 ± 0.0045
AGGTAGATGG	0.995 ± 0.0096
AGGTAGCTGT	1.04 ± 0.053
AGGTAGGCAT	1 ± 0.041
AGGTAGGGTG	1.04 ± 0.055
AGGTATTCAG	1.01 ± 0.033
AGGTATTGG	1.008 ± 0.0055
AGGTATTGGG	1.02 ± 0.043
AGGTATTTGA	0.984 ± 0.054
AGGTCAGCTT	1.01 ± 0.04
AGGTCAGTAG	1 ± 0.024
AGGTCATTGA	1 ± 0.021
AGGTCCGGTG	1.031 ± 0.0096
AGGTCGATCC	0.993 ± 0.05
AGGTCGGATG	1.004 ± 0.0056
AGGTCGGCA	0.9919 ± 0.0092
AGGTCGGGGG	0.988 ± 0.029
AGGTGAAAAG	1.01 ± 0.02

Sequence	switch fluorescence ratio
AGGTGAAATC	1.26 ± 0.34
AGGTGAAATT	1.11 ± 0.1
AGGTGATGGG	1.04 ± 0.023
AGGTGATGTG	0.998 ± 0.028
AGGTGCATTT	1.08 ± 0.02
AGGTGCTTAC	1.04 ± 0.037
AGGTGGGAGT	1.02 ± 0.021
AGGTGGTACA	0.993 ± 0.03
AGGTGGTAGT	1 ± 0.012
AGGTGTAAAT	1.003 ± 0.0016
AGGTGTATTG	1.03 ± 0.017
AGGTGTTATC	0.9933 ± 0.0015
AGGTGTTCCG	1.04 ± 0.084
AGGTGTTTAA	1.03 ± 0.061
AGGTGTTTGC	1.05 ± 0.028
AGGTTAACTA	1.02 ± 0.024
AGGTTAAGTA	1 ± 0.027
AGGTTACAAT	1.04 ± 0.043
AGGTTACATC	1.018 ± 0.0016
AGGTTAGACG	1.01 ± 0.04
AGGTTAGATG	0.991 ± 0.013
AGGTTATACG	1.01 ± 0.022
AGGTTCTATT	0.9864 ± 0.0089
AGGTTGAAAG	0.974 ± 0.035
AGGTTGGGC	1.04 ± 0.034

Sequence	switch fluorescence ratio
AGGTTGGGGT	1.01 ± 0.036
AGGTTGGTTA	0.984 ± 0.029
AGGTTGTATG	0.97 ± 0.039
AGGTTGTGGG	1.02 ± 0.022
AGGTTGTTTT	0.977 ± 0.028
AGGTTTCTCT	0.966 ± 0.031
AGGTTTGCTC	1.01 ± 0.011
AGGTTTGGGA	0.987 ± 0.032
AGGTTTGGGT	0.998 ± 0.026
AGGTTTGTA	1.04 ± 0.016
AGGTTTGTGG	0.976 ± 0.023
AGGTTTGTTA	0.987 ± 0.015
AGGTTTTATT	0.948 ± 0.023
AGTAAAAAAT	0.9891 ± 0.0066
AGTAAAATT	0.9865 ± 0.0036
AGTAAAGTGG	0.971 ± 0.025
AGTAAAGTGT	0.99703 ± 0.00028
AGTAAATCTC	1.04 ± 0.017
AGTAACCAAA	1.04 ± 0.097
AGTAACGCGG	0.979 ± 0.014
AGTAAGAGAA	0.995 ± 0.023
AGTAAGATTG	0.9889 ± 0.0026
AGTAAGATTT	1.16 ± 0.15
AGTAAGCCAC	1.05 ± 0.082
AGTAAGGATC	1 ± 0.031
